Several values for one entry are separate records, joined by “and”; a condition that tells them apart may be missing. Identical values can stand only once.
Target: slipper limpet hemocyanin (Crepidula fornicata) (Crepidula fornicata)
Assay: cryo-EM structure; SLH (ion exchange flow-through) at 15 mg/ml, Chameleon grids, Glacios microscope, Relion 3.1; didecamer built with d5, tridecamer with c5 symmetry

stoichiometry N: 20 and 30
Substance: slipper limpet hemocyanin (Crepidula fornicata) (natural protein)

From article PMC10286996
